According to patent publication US20220340682A1 (Sanofi, published 2022):
Numbering of substitutions follows the chain as printed.

B1: MAb5-SPDB-DM4 (other)
VH: ELQLVESGGVLVKPGGSLKLSCAASGFAFSSYDMSWVRQTPEKRLEWVTYINSGGGITYYPDTVKGRFTISRDNARNTLYLQMSSLKSEDTAIYYCTAHYFGSSGPFAYWGQGTLVTVSA
VL: DIQMTQSPASLSASVGETVTITCRASENIYSYLAWYQQKQGKSPQLLVYNAKTLTEGVPSRFSGSGSGTQFSLKINSLQPEDFGSYYCQHHYGTPFTFGSGTKLEIK
modifications: maytansinoid DM4 conjugated through SPDB linker; attachment residues not stated
B2: MAb2-SPDB-DM4 (other)
VH: EVQLQESGGVLVKPGGSLKLSCAASGFVFSSYDMSWVRQTPEKRLEWVAYISSGGGITYFPDTVQGRFTVSRDNAKNTLYLQMNSLKSEDTAIYYCAAHYFGSSGPFAYWGQGTLVTVSA
VL: B1 VL with Y30F, A51T, T55A
modifications: maytansinoid DM4 conjugated through SPDB linker; attachment residues not stated
B3: MAb4-SPDB-DM4 (other)
VH: EVQLVESGGGLVKPGGSLKLSCAASGFTFSSYDMSWVRQTPEKRLEWVAFISSYGGRTYYADTVKGRFTISRDNAKNTLYLQMSSLKSEDTAMFYCAAHYFGTSGPFAYWGQGTLVTVSA
VL: B1 VL with L33F, T53I, T55A, S85T, T94I, I106L
modifications: maytansinoid DM4 conjugated through SPDB linker; attachment residues not stated
B4: MAb1-SPDB-DM4 (other)
VH: EVMLVESGGGLVKPGGSLKLSCAASGFTFSSYAMSWVRQTPEKRLEWVATISSGGSYIYYLDSVKGRFTISRDNAKNTLYLQMSSLRSEDTAMYYCARPAYYGNPAMDYWGQGTSVTVSS
VL: DILMTQSQKFMSTSVGDRVSVTCKASQNVGTNVAWYQQKPGQSPKPLIYSASYRYSGVPDRFTGSGSGTDFTLTISNVQSEDLAEYFCQQYNSYPLYTFGGGTKLEIK
modifications: maytansinoid DM4 conjugated through SPDB linker; attachment residues not stated
B5: MAb3-SPDB-DM4 (other)
VH: EVKLVESGGGLVKPGGSLTLPCAASGFTFSRYAMSWVRQTPEKRLEWVASISSGGDTYYPDSVKGRFTVSRDNARNILFLQMSSLRSEDTGMYYCARVNYYDSSFLDWWGQGTTLTVSS
VL: B4 VL with L3V, K9R, S14L, V15E, P46A, S93N
modifications: maytansinoid DM4 conjugated through SPDB linker; attachment residues not stated

Molecular target: T1, human CEACAM5 expressed on the surface of tumor cells (human, UniProt P06731 35-685)
T1 sequence: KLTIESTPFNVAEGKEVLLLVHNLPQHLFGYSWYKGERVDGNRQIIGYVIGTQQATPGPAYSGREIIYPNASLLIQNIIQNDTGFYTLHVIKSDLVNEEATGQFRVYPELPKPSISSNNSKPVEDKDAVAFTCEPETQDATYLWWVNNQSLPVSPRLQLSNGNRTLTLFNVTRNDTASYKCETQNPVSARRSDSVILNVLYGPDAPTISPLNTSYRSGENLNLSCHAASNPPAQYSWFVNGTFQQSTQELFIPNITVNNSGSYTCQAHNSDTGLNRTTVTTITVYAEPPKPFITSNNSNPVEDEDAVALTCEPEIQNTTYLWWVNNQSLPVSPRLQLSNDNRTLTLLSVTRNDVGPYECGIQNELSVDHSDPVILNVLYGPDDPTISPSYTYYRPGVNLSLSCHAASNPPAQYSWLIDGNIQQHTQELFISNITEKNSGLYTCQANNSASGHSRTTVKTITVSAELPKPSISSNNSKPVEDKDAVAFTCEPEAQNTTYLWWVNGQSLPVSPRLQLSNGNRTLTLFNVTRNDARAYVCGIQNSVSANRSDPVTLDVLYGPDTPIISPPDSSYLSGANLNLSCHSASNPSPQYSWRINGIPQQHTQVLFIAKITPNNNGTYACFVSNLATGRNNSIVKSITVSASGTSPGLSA
Assay: cell-based or functional assay

Binder	Cytotoxic activity IC50 (nM) on MKN45 cells [nM]
B1	0.24
B2	0.14
B3	0.96
B4	0.89
B5	0.53
